B1: Chemotaxis protein CheA (Escherichia coli (strain K12)), P07363 (parent)
chain: MSMDISDFYQTFFDEADELLADMEQHLLVLQPEAPDAEQLNAIFRAAHSIKGGAGTFGFSVLQETTHLMENLLDEARRGEMQLNTDIINLFLETKDIMQEQLDAYKQSQEPDAASFDYICQALRQLALEAKGETPSAVTRLSVVAKSEPQDEQSRSQSPRRIILSRLKAGEVDLLEEELGHLTTLTDVVKGADSLSAILPGDIAEDDITAVLCFVIEADQITFETVEVSPKISTPPVLKLAAEQAPTGRVEREKTTRSNESTSIRVAVEKVDQLINLVGELVITQSMLAQRSSELDPVNHGDLITSMGQLQRNARDLQESVMSIRMMPMEYVFSRYPRLVRDLAGKLGKQVELTLVGSSTELDKSLIERIIDPLTHLVRNSLDHGIELPEKRLAAGKNSVGNLILSAEHQGGNICIEVTDDGAGLNRERILAKAASQGLTVSENMSDDEVAMLIFAPGFSTAEQVTDVSGRGVGMDVVKRNIQKMGGHVEIQSKQGTGTTIRILLPLTLAILDGMSVRVADEVFILPLNAVMESLQPREADLHPLAGGERVLEVRGEYLPIVELWKVFNVAGAKTEATQGIVVILQSGGRRYALLVDQLIGQHQVVVKNLESNYRKVPGISAATILGDGSVALIVDVSALQAINREQRMANTAA
partner: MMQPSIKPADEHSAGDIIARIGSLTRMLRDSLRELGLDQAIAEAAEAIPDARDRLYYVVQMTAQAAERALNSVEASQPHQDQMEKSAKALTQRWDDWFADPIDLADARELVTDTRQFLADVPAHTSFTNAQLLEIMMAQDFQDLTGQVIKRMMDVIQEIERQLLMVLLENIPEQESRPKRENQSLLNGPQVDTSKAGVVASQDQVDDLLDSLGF

Variants of: B1
Details: with chez_ecoli cheZ

Effect of a mutation on the interaction, decreasing interaction strength:
Y118C
R124C
L123C
L126C

— IntAct's records for PubMed 19581362
